The text below walks through data of PMC2526197.

Assay [1] concerns the target Evasin-3 (HEK) (Rhipicephalus sanguineus) (UniProt P0C8E8). Briefly: SPR. (Surface plasmon resonance follows binding to a sensor surface in real time, without labels.)

Chain of Evasin-3 (HEK) (Rhipicephalus sanguineus) (P0C8E8 21-86): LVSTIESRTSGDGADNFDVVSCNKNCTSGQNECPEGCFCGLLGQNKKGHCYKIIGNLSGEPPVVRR
Chain of Evasin-3 (E. coli) (P0C8E8 21-86): as above

The term Kd denotes the concentration at which binding is half-saturated. Low readings indicate a tighter complex, high ones a looser complex. In the case of CXCL8 (ligand), the equilibrium dissociation constant (Kd) in assay [1] was 0.7 nM.

The substance “Evasin-3 (E. coli) (from UniProt P0C8E8 21-86) (natural protein)” yielded an IC50 of inhibition of CXCL8-induced chemotaxis of neutrophils in vitro with CXCL8 (human) of 3.35 nM.
